The data set deals with the molecule itself. As to the kind of experiment: nonreducing SDS-PAGE.

B1: His6-SipA^1-242 (domain or fragment)
chain: MVTSVRTQPPVIMPGMQTEIKTQATNLAANLSAVRESATATLSGEIKGPQLEDFPALIKQASLDALFKCGKDAEALKEVFTNSNNVAGKKAIMEFAGLFRSALNATSDSPEAKTLLMKVGAEYTAQIIKDGLKEKSAFGPWLPETKKAEAKLENLEKQLLDIIKNNTGGELSKLSTNLVMQEVMPYIASCIEHNFGCTLDPLTRSNLTHLVDKAAAKAVEALDMCHQKLTQEQGTSVGREAR
With B1, the binding result was “binds”.

(Values after article PMC6279372 (The Journal of Cell Biology, 2018).)
